Measurements from US20230138315A1 (JIANGSU HENGRUI MEDICINE, published 2023).

T1: human-ANGPTL3(17-460)-His (human, UniProt Q9Y5C1 17-460, biotin-labelled (labelling kit, sites not stated))
T1 construct: also called full-length human ANGPTL3
T1 sequence: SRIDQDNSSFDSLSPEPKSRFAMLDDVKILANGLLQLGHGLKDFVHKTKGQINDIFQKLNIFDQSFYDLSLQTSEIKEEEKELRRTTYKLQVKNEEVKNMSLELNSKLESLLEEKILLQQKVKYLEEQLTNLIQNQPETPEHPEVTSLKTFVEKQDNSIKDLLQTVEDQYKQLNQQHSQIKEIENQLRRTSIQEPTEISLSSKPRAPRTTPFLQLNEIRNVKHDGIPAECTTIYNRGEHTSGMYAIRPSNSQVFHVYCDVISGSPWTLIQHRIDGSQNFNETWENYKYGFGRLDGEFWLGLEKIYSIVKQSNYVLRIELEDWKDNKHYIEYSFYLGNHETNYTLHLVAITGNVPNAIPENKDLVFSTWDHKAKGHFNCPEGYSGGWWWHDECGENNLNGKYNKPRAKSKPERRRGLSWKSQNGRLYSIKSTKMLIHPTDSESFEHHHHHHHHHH

T2: rat ANGPTL3(17-455)-His (rat, biotin-labelled in the ELISA and HTRF assays (sites not given))
T2 construct: also called full-length rat ANGPTL3
T2 chain: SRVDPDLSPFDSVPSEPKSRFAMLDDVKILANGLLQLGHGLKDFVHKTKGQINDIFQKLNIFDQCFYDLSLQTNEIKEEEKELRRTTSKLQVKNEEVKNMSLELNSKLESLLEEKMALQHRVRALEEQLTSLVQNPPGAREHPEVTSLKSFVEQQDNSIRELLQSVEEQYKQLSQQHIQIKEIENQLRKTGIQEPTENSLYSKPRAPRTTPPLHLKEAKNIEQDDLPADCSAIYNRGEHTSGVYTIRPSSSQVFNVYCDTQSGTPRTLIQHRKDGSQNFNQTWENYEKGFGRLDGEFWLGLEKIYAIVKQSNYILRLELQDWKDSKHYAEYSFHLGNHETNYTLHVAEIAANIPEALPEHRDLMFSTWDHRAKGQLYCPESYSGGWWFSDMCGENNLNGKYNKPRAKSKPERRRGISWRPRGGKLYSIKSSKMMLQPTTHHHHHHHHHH

T3: mouse ANGPTL3(17-455)-His (mouse, UniProt Q9R182 17-455, biotin-labelled in the ELISA and HTRF assays (sites not given))
T3 construct: also called full-length mouse ANGPTL3
T3 sequence: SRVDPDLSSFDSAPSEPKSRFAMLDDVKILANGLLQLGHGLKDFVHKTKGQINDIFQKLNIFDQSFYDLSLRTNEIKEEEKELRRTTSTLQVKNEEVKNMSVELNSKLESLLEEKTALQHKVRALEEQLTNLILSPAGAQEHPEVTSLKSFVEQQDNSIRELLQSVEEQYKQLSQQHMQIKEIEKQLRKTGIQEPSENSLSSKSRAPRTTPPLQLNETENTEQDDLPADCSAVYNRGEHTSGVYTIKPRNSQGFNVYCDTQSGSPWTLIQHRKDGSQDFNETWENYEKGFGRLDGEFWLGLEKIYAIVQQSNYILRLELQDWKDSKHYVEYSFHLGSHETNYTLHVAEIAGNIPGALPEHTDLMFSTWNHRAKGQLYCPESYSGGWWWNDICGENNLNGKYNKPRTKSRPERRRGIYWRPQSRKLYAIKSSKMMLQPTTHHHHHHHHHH

T4: cynomolgus monkey ANGPTL3(17-460)-His (cynomolgus monkey, UniProt Q9Y5C1 17-460 (human entry), biotin-labelled in the ELISA and HTRF assays (sites not given))
T4 construct: also called full-length cynomolgus monkey ANGPTL3; Cyno ANGPTL3
T4 chain: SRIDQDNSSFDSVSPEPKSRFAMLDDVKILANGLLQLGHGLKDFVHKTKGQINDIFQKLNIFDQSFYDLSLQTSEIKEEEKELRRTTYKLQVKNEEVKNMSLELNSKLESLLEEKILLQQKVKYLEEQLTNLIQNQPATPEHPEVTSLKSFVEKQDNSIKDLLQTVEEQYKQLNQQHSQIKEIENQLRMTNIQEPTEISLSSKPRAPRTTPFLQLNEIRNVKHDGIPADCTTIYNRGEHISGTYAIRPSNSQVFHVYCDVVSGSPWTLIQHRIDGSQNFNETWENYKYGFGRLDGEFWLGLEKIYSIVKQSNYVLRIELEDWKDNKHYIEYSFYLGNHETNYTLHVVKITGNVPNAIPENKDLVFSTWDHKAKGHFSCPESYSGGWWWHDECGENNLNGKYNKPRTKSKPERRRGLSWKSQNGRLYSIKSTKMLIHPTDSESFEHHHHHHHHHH

B1: P8G (antibody, human IgG4 S228P, kappa, V domains shown)
VH: QVQLVQSGAEVKKPGASVKVSCKASGYTFTSYDINWVRQAPGQGLEWVGLINPRDDSTSYAQKFQGRVTMTRDTSTSTMYMELSSLRSEDTAVYFCARDLGSIREVLYYGMDVWGQGTTVTVSS
VL: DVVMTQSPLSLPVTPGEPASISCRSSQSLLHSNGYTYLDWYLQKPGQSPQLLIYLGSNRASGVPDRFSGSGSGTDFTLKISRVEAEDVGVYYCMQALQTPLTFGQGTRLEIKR
notes: also called anti-ANGPTL3 antibody P8G; P8 (variable regions)
B2: P3G (antibody, human IgG4 S228P, kappa, V domains shown)
VH: QVQLVQSGAEVKKPGASVKVSCKSSGYTFTDYYLHWLRQAPGQGPEWMGWISPNSGGTSYAQKFQGRVTMTRDTSISTAYMELSSLRSDDTAVYYCARDIATLGNFFTYGMDVWGQGTTVTVSS
VL: DIQLTQSPSSLSASVGDRVTITCRASQGIRNDLGWYQQKPGKAPKLLIYAASSLQSGVPSRFSGSGSGTDFTLTISSLQPEDFATYYCQQSYSSWTFGQGTKVEIKR
notes: also called anti-ANGPTL3 antibody P3G; P3 (variable regions)

Assays:
Test in all cases: HTRF; biotin-labelled antigen with Streptavidin-Tb cryptate
[1] = biological target: T1, human-ANGPTL3(17-460)-His
[2] = biological target: T2, rat ANGPTL3(17-455)-His
[3] = biological target: T3, mouse ANGPTL3(17-455)-His
[4] = biological target: T4, cynomolgus monkey ANGPTL3(17-460)-His

Binder | EC50 [1] [nM] | EC50 [2] [nM] | EC50 [3] [nM] | EC50 [4] [nM]
B1 | 0.784 | 0.484 | 0.45 | 0.303
B2 | 0.929 | 0.597 | 0.638 | 0.502
